The results in this text go back to publication doi:10.1101/2025.09.14.676173.

The target in assay [1] is S2P.BA5.VI-1147 A570C/N967C (I1) (SARS CoV-2 omicron BA.5). Nature of the assay: cross-linking.
Assay [2] addresses S2P.BA5.VI-1147 D571C/N967C (D17) (SARS CoV-2 omicron BA.5). The experiment in a line: cross-linking.

With “S2P.BA5.VI-1147 A570C/N967C (I1) (domain or fragment)”, the stoichiometry N (in general, the number of molecules, sites or subunits per partner or assembly) in assay [1] turned out to be 3. Turning to “S2P.BA5.VI-1147 D571C/N967C (D17) (domain or fragment)”, the stoichiometry N in assay [2] worked out at 3.
